Measured values from patent publication US20220064329A1 (Novo Nordisk, published 2022).

T1: sTLT1 (SEQ ID No: 3 with six histidine residues added at the C-terminus) (human, UniProt Q86YW5 16-162)
T1 construct: Soluble TLT-1 used in SPR
T1 sequence: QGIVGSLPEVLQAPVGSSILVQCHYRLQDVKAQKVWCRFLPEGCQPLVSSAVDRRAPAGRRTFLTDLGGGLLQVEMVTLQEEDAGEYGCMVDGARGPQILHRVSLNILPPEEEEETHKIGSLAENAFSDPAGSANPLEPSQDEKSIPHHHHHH

T2: recombinant human activated FVII (FVIIa) (human, UniProt P08709 61-212; P08709 213-466, ten glutamate residues of the Gla domain may be gamma-carboxylated)
T2 construct: Two-chain form after cleavage between Arg152 and Ile153; light and heavy chain tethered by a disulfide bond; also called rFVIIa; Factor VIIa
T2 sequence 1: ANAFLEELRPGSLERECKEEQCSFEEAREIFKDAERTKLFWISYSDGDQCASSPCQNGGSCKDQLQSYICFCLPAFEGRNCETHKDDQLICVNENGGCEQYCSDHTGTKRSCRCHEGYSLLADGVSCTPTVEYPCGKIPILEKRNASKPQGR
T2 sequence 2: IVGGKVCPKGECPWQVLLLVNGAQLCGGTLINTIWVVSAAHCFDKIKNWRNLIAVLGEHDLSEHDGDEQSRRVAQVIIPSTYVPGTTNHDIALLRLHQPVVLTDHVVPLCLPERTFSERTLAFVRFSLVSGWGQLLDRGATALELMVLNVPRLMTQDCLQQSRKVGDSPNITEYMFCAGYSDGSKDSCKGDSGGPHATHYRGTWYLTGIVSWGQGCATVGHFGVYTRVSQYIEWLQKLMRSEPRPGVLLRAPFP

T3: recombinant human activated Factor VII (FVIIa) (human, UniProt P08709 61-212; P08709 213-466, ten glutamate residues of the Gla domain may be gamma-carboxylated)
T3 construct: chains tethered by a disulfide bond; also called Factor VIIa; rFVIIa
T3 sequence 1: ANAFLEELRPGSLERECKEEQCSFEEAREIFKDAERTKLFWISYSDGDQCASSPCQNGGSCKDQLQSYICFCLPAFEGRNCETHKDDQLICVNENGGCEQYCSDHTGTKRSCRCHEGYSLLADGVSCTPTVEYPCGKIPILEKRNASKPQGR
T3 sequence 2: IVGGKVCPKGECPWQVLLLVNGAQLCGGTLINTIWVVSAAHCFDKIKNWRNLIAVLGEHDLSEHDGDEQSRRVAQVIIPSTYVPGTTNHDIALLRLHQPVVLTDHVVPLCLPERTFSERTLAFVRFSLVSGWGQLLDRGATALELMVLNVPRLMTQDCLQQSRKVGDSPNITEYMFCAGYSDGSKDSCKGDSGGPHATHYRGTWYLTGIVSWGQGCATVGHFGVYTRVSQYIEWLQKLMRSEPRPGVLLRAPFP


Experiments:
[1] = target: T1, sTLT1 (SEQ ID No: 3 with six histidine …); assay: dissociation constant listed with the stimulatory activities; value of the anti-TLT-1 arm
[2] = target: T2, recombinant human activated FVII (FVIIa); assay: dissociation constant listed with the stimulatory activities; method not given
[3] = target: T2, recombinant human activated FVII (FVIIa); assay: cell-based or functional assay
[4] = target: T3, recombinant human activated Factor VII …; assay: SPR (Biacore)
[5] = target: T3, recombinant human activated Factor VII …; assay: cell-based or functional assay

| Kd [1] [nM] | Kd [2] [nM] | Stimulation (fold): FXa generated by FVIIa with lipidated TLT-1 and 100 nM biAb, relative to free FVIIa [3] [fold] | Kd [4] [nM] | AT inhibition (kinh %) [5] [%] | TGT activity (%% FVIIa) [5] [%] | Binder |
| --- | --- | --- | --- | --- | --- | --- |
| 2.9 | 0.28 | 20.3 |  |  |  | biAb0011 (bispecific antibody, human IgG4 S228P, kappa, Duobody, constant domain type H (IgG4): anti-FVII(a) arm mAb0875, anti-TLT-1 arm mAb1076; also called mAb0875 x mAb1076) heavy 1: QVQLQESGPGLVEPSQTLSLTCTVSGYSITSDSAWSWIRQPPGKKLEWIGYIQYSGSTNYNPSLKSRVTISRDTSKNQFSLKLSSVTAADTAVYYCARSVNYYGNSFAVGYWGQGTLVTVSSASTKGPSVFPLAPCSRSTSESTAALGCLVKDYFPEPVTVSWNSGALTSGVHTFPAVLQSSGLYSLSSVVTVPSSSLGTKTYTCNVDHKPSNTKVDKRVESKYGPPCPPCPAPEFLGGPSVFLFPPKPKDTLMISRTPEVTCVVVDVSQEDPEVQFNWYVDGVEVHNAKTKPREEQFNSTYRVVSVLTVLHQDWLNGKEYKCKVSNKGLPSSIEKTISKAKGQPREPQVYTLPPSQEEMTKNQVSLTCLVKGFYPSDIAVEWESNGQPENNYKTTPPVLDSDGSFLLYSKLTVDKSRWQEGNVFSCSVMHEALHNHYTQKSLSLSLGK light 1: EIVLTQSPATLSLSPGERATLSCRASQGVSDYLHWYQQKPGQAPRLLIKYASQPATGIPARFSGSGSGTDFTLTISSLEPEDFAVYYCQNGHSFPLTFGQGTKLEIKRTVAAPSVFIFPPSDEQLKSGTASVVCLLNNFYPREAKVQWKVDNALQSGNSQESVTEQDSKDSTYSLSSTLTLSKADYEKHKVYACEVTHQGLSSPVTKSFNRGEC heavy 2: not shown light 2: DIVMTQTPLSSPVTLGQPASISCRSSQSLVHRQGNTYFHWLQQRPGQPPRLLIYKVSNRFSGVPDRFSGSGAGTDFTLKISRVEAEDVGVYYCSQSTHVPYTFGQGTKLEIKRTVAAPSVFIFPPSDEQLKSGTASVVCLLNNFYPREAKVQWKVDNALQSGNSQESVTEQDSKDSTYSLSSTLTLSKADYEKHKVYACEVTHQGLSSPVTKSFNRGEC |
|  |  |  | 0.106 | 129 | 102 | mAb0707(OA) (antibody, human IgG4 S228P, kappa, one-armed (OA) antibody, constant domain type F (knob-in-hole)) heavy: QVQLQESGPGLVEPSQTLSLTCTVSGYSISSDSAWSWIRQPPGKGLEWIGYIQYSGSTNYNPSLKSRVTISRDTSKNQFSLKLSSVTAADTAVYYCARSVNYYGNSFAVGPWGQGTLVTVSSASTKGPSVFPLAPCSRSTSESTAALGCLVKDYFPEPVTVSWNSGALTSGVHTFPAVLQSSGLYSLSSVVTVPSSSLGTKTYTCNVDHKPSNTKVDKRVESKYGPPCPPCPAPEFLGGPSVFLFPPKPKDTLMISRTPEVTCVVVDVSQEDPEVQFNWYVDGVEVHNAKTKPREEQFNSTYRVVSVLTVLHQDWLNGKEYKCKVSNKGLPSSIEKTISKAKGQPREPQVYTLPPSQEEMTKNQVSLSCAVKGFYPSDIAVEWESNGQPENNYKTTPPVLDSDGSFFLVSRLTVDKSRWQEGNVFSCSVMHEALHNHYTQKSLSLSLGK light: EIVLTQSPATLSLSPGERATLSCRASQGISDYLHWYQQKPGEAPRLLIKYTSQPATGIPARFSGSGSGTDFTLTISSLEPEDFAVYYCQNGHSFPLTFGQGTKLEIKRTVAAPSVFIFPPSDEQLKSGTASVVCLLNNFYPREAKVQWKVDNALQSGNSQESVTEQDSKDSTYSLSSTLTLSKADYEKHKVYACEVTHQGLSSPVTKSFNRGEC not shown |
|  |  |  | 0.0505 | 129 | 100 | mAb0705(OA) (antibody, human IgG4 S228P, kappa, one-armed (OA) antibody, constant domain type F (knob-in-hole); also called monovalent humanized 11F2) heavy: QVQLQESGPGLVKPSQTLSLTCTVSGYSISSDSAWSWIRQPPGKGLEWIGYIQYSGSTNYNPSLKSRVTISRDTSKNQFSLKLSSVTAADTAVYYCARSVNYYGNSFAVGYWGQGTLVTVSSASTKGPSVFPLAPCSRSTSESTAALGCLVKDYFPEPVTVSWNSGALTSGVHTFPAVLQSSGLYSLSSVVTVPSSSLGTKTYTCNVDHKPSNTKVDKRVESKYGPPCPPCPAPEFLGGPSVFLFPPKPKDTLMISRTPEVTCVVVDVSQEDPEVQFNWYVDGVEVHNAKTKPREEQFNSTYRVVSVLTVLHQDWLNGKEYKCKVSNKGLPSSIEKTISKAKGQPREPQVYTLPPSQEEMTKNQVSLSCAVKGFYPSDIAVEWESNGQPENNYKTTPPVLDSDGSFFLVSRLTVDKSRWQEGNVFSCSVMHEALHNHYTQKSLSLSLGK light: EIVLTQSPATLSLSPGERATLSCRASQGISDYLHWYQQKPGEAPRLLIKYTSQPATGIPARFSGSGSGTDFTLTISSLEPEDFAVYYCQNGHSFPLTFGQGTKLEIKRTVAAPSVFIFPPSDEQLKSGTASVVCLLNNFYPREAKVQWKVDNALQSGNSQESVTEQDSKDSTYSLSSTLTLSKADYEKHKVYACEVTHQGLSSPVTKSFNRGEC not shown |
| 19 | 0.28 | 17.3 |  |  |  | biAb0016 (bispecific antibody, human IgG4 S228P, kappa, Duobody, constant domain type H (IgG4): anti-FVII(a) arm mAb0875, anti-TLT-1 arm mAb1038; also called mAb0875 x mAb1038) heavy 1: QVQLQESGPGLVEPSQTLSLTCTVSGYSITSDSAWSWIRQPPGKKLEWIGYIQYSGSTNYNPSLKSRVTISRDTSKNQFSLKLSSVTAADTAVYYCARSVNYYGNSFAVGYWGQGTLVTVSSASTKGPSVFPLAPCSRSTSESTAALGCLVKDYFPEPVTVSWNSGALTSGVHTFPAVLQSSGLYSLSSVVTVPSSSLGTKTYTCNVDHKPSNTKVDKRVESKYGPPCPPCPAPEFLGGPSVFLFPPKPKDTLMISRTPEVTCVVVDVSQEDPEVQFNWYVDGVEVHNAKTKPREEQFNSTYRVVSVLTVLHQDWLNGKEYKCKVSNKGLPSSIEKTISKAKGQPREPQVYTLPPSQEEMTKNQVSLTCLVKGFYPSDIAVEWESNGQPENNYKTTPPVLDSDGSFLLYSKLTVDKSRWQEGNVFSCSVMHEALHNHYTQKSLSLSLGK light 1: EIVLTQSPATLSLSPGERATLSCRASQGVSDYLHWYQQKPGQAPRLLIKYASQPATGIPARFSGSGSGTDFTLTISSLEPEDFAVYYCQNGHSFPLTFGQGTKLEIKRTVAAPSVFIFPPSDEQLKSGTASVVCLLNNFYPREAKVQWKVDNALQSGNSQESVTEQDSKDSTYSLSSTLTLSKADYEKHKVYACEVTHQGLSSPVTKSFNRGEC heavy 2: not shown light 2: DIVMTQTPLSSPVTLGQPASISCRSSQSLVHRPGNTYFHWLQQRPGQPPRLLIYKVSNRFSGVPDRFSGSGAGTDFTLKISRVEAEDVGVYYCSQSTHVPYTFGQGTKLEIKRTVAAPSVFIFPPSDEQLKSGTASVVCLLNNFYPREAKVQWKVDNALQSGNSQESVTEQDSKDSTYSLSSTLTLSKADYEKHKVYACEVTHQGLSSPVTKSFNRGEC |
|  |  |  | 0.128 | 136 | 102 | mAb0710(OA) (antibody, human IgG4 S228P, kappa, one-armed (OA) antibody, constant domain type F (knob-in-hole)) heavy: QVQLQESGPGLVKPSQTLSLTCTVSGYSISSDSAWSWIRQFPGKGLEWIGYIQYSGSTNYNPSLKSRVTISRDTSKNQFSLKLSSVTAADTAVYYCARSVNYYGNSFAVGPWGQGTLVTVSSASTKGPSVFPLAPCSRSTSESTAALGCLVKDYFPEPVTVSWNSGALTSGVHTFPAVLQSSGLYSLSSVVTVPSSSLGTKTYTCNVDHKPSNTKVDKRVESKYGPPCPPCPAPEFLGGPSVFLFPPKPKDTLMISRTPEVTCVVVDVSQEDPEVQFNWYVDGVEVHNAKTKPREEQFNSTYRVVSVLTVLHQDWLNGKEYKCKVSNKGLPSSIEKTISKAKGQPREPQVYTLPPSQEEMTKNQVSLSCAVKGFYPSDIAVEWESNGQPENNYKTTPPVLDSDGSFFLVSRLTVDKSRWQEGNVFSCSVMHEALHNHYTQKSLSLSLGK light: EIVLTQSPATLSLSPGERATLSCRASQGISDYLHWYQQKPGQAPRLLIKYTSQPATGIPARFSGSGSGTDFTLTISSLEPEDFAVYYCQNGHSFPLTFGQGTKLEIKRTVAAPSVFIFPPSDEQLKSGTASVVCLLNNFYPREAKVQWKVDNALQSGNSQESVTEQDSKDSTYSLSSTLTLSKADYEKHKVYACEVTHQGLSSPVTKSFNRGEC not shown |
|  |  |  | 0.0542 | 132 | 101 | mAb0706(OA) (antibody, human IgG4 S228P, kappa, one-armed (OA) antibody, constant domain type F (knob-in-hole)) heavy: QVQLQESGPGLVEPSQTLSLTCTVSGYSISSDSAWSWIRQPPGKGLEWIGYIQYSGSTNYNPSLKSRVTISRDTSKNQFSLKLSSVTAADTAVYYCARSVNYYGNSFAVGYWGQGTLVTVSSASTKGPSVFPLAPCSRSTSESTAALGCLVKDYFPEPVTVSWNSGALTSGVHTFPAVLQSSGLYSLSSVVTVPSSSLGTKTYTCNVDHKPSNTKVDKRVESKYGPPCPPCPAPEFLGGPSVFLFPPKPKDTLMISRTPEVTCVVVDVSQEDPEVQFNWYVDGVEVHNAKTKPREEQFNSTYRVVSVLTVLHQDWLNGKEYKCKVSNKGLPSSIEKTISKAKGQPREPQVYTLPPSQEEMTKNQVSLSCAVKGFYPSDIAVEWESNGQPENNYKTTPPVLDSDGSFFLVSRLTVDKSRWQEGNVFSCSVMHEALHNHYTQKSLSLSLGK light: EIVLTQSPATLSLSPGERATLSCRASQGISDYLHWYQQKPGQAPRLLIKYTSQPATGIPARFSGSGSGTDFTLTISSLEPEDFAVYYCQNGHSFPLTFGQGTKLEIKRTVAAPSVFIFPPSDEQLKSGTASVVCLLNNFYPREAKVQWKVDNALQSGNSQESVTEQDSKDSTYSLSSTLTLSKADYEKHKVYACEVTHQGLSSPVTKSFNRGEC not shown |
